Laboratory results published in publication PMC10085679, “Filament assembly underpins the double-stranded DNA specificity of AIM2-like receptors”.

T1: AIM2FL (Homo sapiens, UniProt O14862 1-343)
T1 sequence: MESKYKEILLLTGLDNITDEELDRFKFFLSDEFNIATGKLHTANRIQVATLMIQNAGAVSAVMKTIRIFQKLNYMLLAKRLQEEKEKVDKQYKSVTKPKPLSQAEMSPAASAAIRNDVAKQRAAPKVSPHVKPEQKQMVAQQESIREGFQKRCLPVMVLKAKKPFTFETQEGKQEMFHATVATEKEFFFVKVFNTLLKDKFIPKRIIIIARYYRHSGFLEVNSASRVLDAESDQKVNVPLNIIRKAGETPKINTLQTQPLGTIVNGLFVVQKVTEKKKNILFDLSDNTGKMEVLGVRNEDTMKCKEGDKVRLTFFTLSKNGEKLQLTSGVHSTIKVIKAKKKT

T2: AIM2HIN (Homo sapiens, UniProt O14862 144-343)
T2 sequence: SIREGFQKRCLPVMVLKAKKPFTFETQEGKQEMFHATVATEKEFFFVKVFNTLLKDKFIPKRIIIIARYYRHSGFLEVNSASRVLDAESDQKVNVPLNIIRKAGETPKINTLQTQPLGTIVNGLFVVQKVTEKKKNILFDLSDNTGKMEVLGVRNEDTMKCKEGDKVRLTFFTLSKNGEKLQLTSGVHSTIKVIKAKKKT

B1: 60-base ssDNA_A (ssDNA)
DNA: AAAGAAAGAAAGAAAGAAAGAAAGAAAGAAAGAAAGAAAGAAAGAAAGAAAGAAAGAAAG
B2: 60-base ssDNA_T (ssDNA)
DNA: TTTCTTTCTTTCTTTCTTTCTTTCTTTCTTTCTTTCTTTCTTTCTTTCTTTCTTTCTTTC
B3: 60-bp dsRNA (dsRNA)
RNA 1: UAAGACACGAUGCGAUAAAAUCUGUUUGUAAAAUUUAUUAAGGGUACAAAUUGCCCUAGC
RNA 2: GCUAGGGCAAUUUGUACCCUUAAUAAAUUUUACAAACAGAUUUUAUCGCAUCGUGUCUUA
B4: 60-base ssRNA_U (ssRNA)
RNA: UUUCUUUCUUUCUUUCUUUCUUUCUUUCUUUCUUUCUUUCUUUCUUUCUUUCUUUCUUUC
B5: 60-base ssRNA_A (ssRNA)
RNA: B1 DNA
B6: 24-bp dsDNA (dsDNA)
DNA 1: TAAGACACGATGCGATAAAATCTG
DNA 2: CAGATTTTATCGCATCGTGTCTTA
B7: 60-bp dsDNA (dsDNA)
DNA 1: TAAGACACGATGCGATAAAATCTGTTTGTAAAATTTATTAAGGGTACAAATTGCCCTAGC
DNA 2: GCTAGGGCAATTTGTACCCTTAATAAATTTTACAAACAGATTTTATCGCATCGTGTCTTA
B8: 24-bp DNA:RNA hybrid (DNA:RNA)
DNA: TAAGACACGATGCGATAAAATCTG
RNA: CAGAUUUUAUCGCAUCGUGUCUUA
B9: 24-bp dsRNA (dsRNA)
RNA 1: UAAGACACGAUGCGAUAAAAUCUG
RNA 2: CAGAUUUUAUCGCAUCGUGUCUUA

These binders were tested against T1, AIM2FL (assay: fluorescence anisotropy; 160 mM KCl (60 mM KCl for IFI16HinAB); buffer, pH and temperature not given in the available text). Details: protein: recombinant.

Binder | Kd
B1 | 150 ± 30 nM
B2 | 320 ± 80 nM
B3 | 50 ± 10 nM
B4 | 80 ± 20 nM
B5 | 400 ± 100 nM

Same assay, conditions: protein: recombinant; label: FAM

Binder | Kd
B6 | 80 ± 20 nM

Each binder was assayed against T2, AIM2HIN in the same assay as above. Details: protein: recombinant.

Binder | Kd
B7 | 600 ± 100 nM
B1 | 2700 ± 100 nM
B2 | 400 ± 100 nM
B3 | 1100 ± 200 nM
B4 | 300 ± 100 nM
B5 | 1400 ± 200 nM

Same assay, conditions: protein: recombinant; label: FAM

Binder | Kd
B6 | 900 ± 200 nM
B8 | 900 ± 100 nM
UUUCUUUCUUUCUUUCUUUCUUUC (ssRNA) [24-base ssRNA_U] | 210 ± 60 nM
B9 | 1200 ± 200 nM
TTTCTTTCTTTCTTTCTTTCTTTC (ssDNA) [24-base ssDNA_T] | 1200 ± 200 nM

Each binder was assayed against T3, IFI16HinAB (Homo sapiens, UniProt Q16666-2 159-729) in the same assay as above. Details: protein: recombinant.
T3 sequence (Q16666 other isoform, or with tags, fused parts or gaps): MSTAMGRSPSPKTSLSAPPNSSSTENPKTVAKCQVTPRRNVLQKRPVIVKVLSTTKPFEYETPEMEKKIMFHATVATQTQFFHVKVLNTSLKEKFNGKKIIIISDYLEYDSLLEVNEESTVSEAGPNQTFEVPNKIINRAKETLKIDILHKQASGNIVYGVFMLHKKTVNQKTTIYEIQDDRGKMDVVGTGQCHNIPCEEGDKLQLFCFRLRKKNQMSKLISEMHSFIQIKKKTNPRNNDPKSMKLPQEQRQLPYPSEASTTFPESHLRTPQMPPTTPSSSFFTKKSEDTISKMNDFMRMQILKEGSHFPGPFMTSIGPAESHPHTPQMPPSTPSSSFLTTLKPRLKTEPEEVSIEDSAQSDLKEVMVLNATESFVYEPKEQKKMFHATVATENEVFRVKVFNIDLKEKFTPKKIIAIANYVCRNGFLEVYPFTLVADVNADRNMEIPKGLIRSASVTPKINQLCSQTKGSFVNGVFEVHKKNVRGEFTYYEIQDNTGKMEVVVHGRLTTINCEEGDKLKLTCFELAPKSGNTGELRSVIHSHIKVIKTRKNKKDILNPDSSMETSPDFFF

Binder | Kd
B7 | 20 ± 10 nM
B2 | 70 ± 20 nM
B3 | 30 ± 10 nM
B4 | 30 ± 10 nM

Each binder was assayed against T4, IFI16FL (Homo sapiens, UniProt Q16666-2 1-729) in the same assay as above. Details: protein: recombinant; tags: C-terminal His6.
T4 sequence (Q16666 other isoform, or with tags, fused parts or gaps): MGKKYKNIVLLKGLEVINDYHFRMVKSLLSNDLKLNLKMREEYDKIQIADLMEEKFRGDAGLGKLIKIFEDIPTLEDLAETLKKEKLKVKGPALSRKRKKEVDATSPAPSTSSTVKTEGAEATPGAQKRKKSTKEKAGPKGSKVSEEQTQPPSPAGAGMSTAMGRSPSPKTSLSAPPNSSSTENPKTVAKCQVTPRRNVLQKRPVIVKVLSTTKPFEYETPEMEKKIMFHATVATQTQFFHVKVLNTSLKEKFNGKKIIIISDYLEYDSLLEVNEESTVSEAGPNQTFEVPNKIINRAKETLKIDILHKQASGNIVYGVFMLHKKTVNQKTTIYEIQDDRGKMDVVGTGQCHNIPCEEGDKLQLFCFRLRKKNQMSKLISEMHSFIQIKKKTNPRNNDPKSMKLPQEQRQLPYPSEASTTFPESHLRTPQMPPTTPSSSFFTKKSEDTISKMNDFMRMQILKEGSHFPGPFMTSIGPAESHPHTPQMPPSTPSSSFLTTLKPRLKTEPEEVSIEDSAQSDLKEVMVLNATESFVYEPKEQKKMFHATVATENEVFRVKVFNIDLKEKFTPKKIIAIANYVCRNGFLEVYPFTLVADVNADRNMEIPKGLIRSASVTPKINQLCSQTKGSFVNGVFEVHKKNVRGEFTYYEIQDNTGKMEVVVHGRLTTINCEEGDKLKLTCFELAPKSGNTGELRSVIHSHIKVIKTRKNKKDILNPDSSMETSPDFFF

Binder | Kd
B2 | 22 ± 4 nM
B3 | 85 ± 7 nM
B4 | 78 ± 11 nM

These binders were tested against T3, IFI16HinAB (assay: EMSA; apparent KD <=250 nM; low salt; 160 mM KCl; 60 mM KCl for IFI16HinAB; FAM probe 3-6 nM (FA) or 20 nM (EMSA); binding buffer pH and temperature not in the material). Details: protein: recombinant; label: FAM.

Binder | Kd
B6 | < 250 nM
B8 | < 250 nM

The binders below were run against T3, IFI16HinAB (assay: competition fluorescence anisotropy; unlabelled competitor against 6 nM 24-bp FAM-dsDNA, 1000 nM protein; 160 mM KCl (60 mM KCl for IFI16HinAB); buffer, pH and temperature not given in the available text). Details: protein: recombinant.

Binder | IC50
B7 | 289 ± 37.3 nM
B2 | 828 ± 155 nM
B3 | 1130 ± 61.7 nM
B4 | 733 ± 48.5 nM

What follows are binders tested against T1, AIM2FL (assay: fluorescence anisotropy; 160 mM KCl; 60 mM KCl for IFI16HinAB; FAM probe 3-6 nM (FA) or 20 nM (EMSA); binding buffer pH and temperature not in the material). Details: protein: recombinant.

Binder | Kd
B1 | 150 ± 30 nM
B2 | 320 ± 80 nM
B3 | 50 ± 10 nM
B4 | 80 ± 20 nM
B5 | 400 ± 100 nM

Each binder was assayed against T2, AIM2HIN in the same assay as above. Details: protein: recombinant.

Binder | Kd
B1 | 2700 ± 100 nM

Same assay, conditions: protein: recombinant; label: FAM

Binder | Kd
AAAGAAAGAAAGAAAGAAAGAAAG (ssDNA) [24-base ssDNA_A] | 5700 ± 700 nM

What follows are binders tested against T4, IFI16FL in the same assay as above. Details: protein: recombinant; tags: C-terminal His6.

Binder | Kd
B1 | 150 ± 20 nM
B2 | 22 ± 4 nM
B3 | 85 ± 7 nM
B4 | 78 ± 11 nM

The binders below were run against T1, AIM2FL (assay: competition fluorescence anisotropy; unlabelled competitor against 6 nM 60-bp FAM-dsDNA, 60 nM protein; 160 mM KCl (60 mM KCl for IFI16HinAB); buffer, pH and temperature not given in the available text). Details: protein: recombinant.

Binder | IC50
B7 | 142 ± 8.5 nM
B5 | 1020 ± 130 nM

What follows are binders tested against T3, IFI16HinAB (assay: EMSA; low salt; 160 mM KCl; 60 mM KCl for IFI16HinAB; FAM probe 3-6 nM (FA) or 20 nM (EMSA); binding buffer pH and temperature not in the material). Details: protein: recombinant; label: FAM.

Binder | Kd
UUUCUUUCUUUCUUUCUUUCUUUC (ssRNA) [24-base ssRNA_U] | ~500 nM
AAAGAAAGAAAGAAAGAAAGAAAG (ssRNA) [24-base ssRNA_A] | ~500 nM

Each binder was assayed against T3, IFI16HinAB (assay: fluorescence anisotropy; 60 mM KCl; 160 mM KCl; 60 mM KCl for IFI16HinAB; FAM probe 3-6 nM (FA) or 20 nM (EMSA); binding buffer pH and temperature not in the material). Details: protein: recombinant.

Binder | Kd
B1 | 500 ± 200 nM

Each binder was assayed against T1, AIM2FL (assay: fluorescence anisotropy; upper-limit estimate; 160 mM KCl; 60 mM KCl for IFI16HinAB; FAM probe 3-6 nM (FA) or 20 nM (EMSA); binding buffer pH and temperature not in the material). Details: protein: recombinant.

Binder | Kd
B7 | < 3 nM

Each binder was assayed against T4, IFI16FL (assay: competition fluorescence anisotropy; unlabelled competitor against 6 nM 60-bp FAM-dsDNA, 100 nM protein; 160 mM KCl (60 mM KCl for IFI16HinAB); buffer, pH and temperature not given in the available text). Details: protein: recombinant; tags: C-terminal His6.

Binder | IC50
B3 | 1070 ± 132 nM
B4 | 1120 ± 75.5 nM
B5 | 166 ± 18 nM

Same assay, conditions: protein: recombinant; tags: C-terminal His6; chain copies: 4

Binder | IC50
B7 | 627 ± 132 nM

These binders were tested against T4, IFI16FL (assay: competition fluorescence anisotropy; unlabelled competitor against 6 nM 24-bp FAM-dsDNA, 500 nM protein; 160 mM KCl (60 mM KCl for IFI16HinAB); buffer, pH and temperature not given in the available text). Details: protein: recombinant; tags: C-terminal His6.

Binder | IC50
B2 | 644 ± 133 nM
B3 | 490 ± 40.3 nM
B4 | 305 ± 48.5 nM

Same assay, conditions: protein: recombinant; tags: C-terminal His6; chain copies: 4

Binder | IC50
B7 | 331 ± 29.8 nM

The binders below were run against T4, IFI16FL (assay: fluorescence anisotropy; printed 0.003*, upper-limit estimate; 160 mM KCl; 60 mM KCl for IFI16HinAB; FAM probe 3-6 nM (FA) or 20 nM (EMSA); binding buffer pH and temperature not in the material). Details: protein: recombinant; tags: C-terminal His6.

Binder | Kd
B7 | < 3 nM

The binders below were run against T3, IFI16HinAB (assay: EMSA; apparent KD >=1 uM; low salt; 160 mM KCl; 60 mM KCl for IFI16HinAB; FAM probe 3-6 nM (FA) or 20 nM (EMSA); binding buffer pH and temperature not in the material). Details: protein: recombinant; label: FAM.

Binder | Kd
AAAGAAAGAAAGAAAGAAAGAAAG (ssDNA) [24-base ssDNA_A] | > 1000 nM
B9 | > 1000 nM
TTTCTTTCTTTCTTTCTTTCTTTC (ssDNA) [24-base ssDNA_T] | > 1000 nM

Each binder was assayed against T1, AIM2FL (assay: competition fluorescence anisotropy; unlabelled competitor against 6 nM 24-bp FAM-dsDNA, 100 nM protein; 160 mM KCl (60 mM KCl for IFI16HinAB); buffer, pH and temperature not given in the available text). Details: protein: recombinant.

Binder | IC50
B7 | 11.8 ± 0.3 nM
B1 | 58.9 ± 6.7 nM
B2 | 165 ± 7.3 nM
B3 | 69.7 ± 6.7 nM
B4 | 273 ± 171 nM
B5 | 46.1 ± 2.7 nM

The binders below were run against T2, AIM2HIN (assay: competition fluorescence anisotropy; unlabelled competitor against 6 nM 60-bp FAM-dsDNA, 400 nM protein; 160 mM KCl (60 mM KCl for IFI16HinAB); buffer, pH and temperature not given in the available text). Details: protein: recombinant.

Binder | IC50
B7 | 268 ± 8.4 nM
B2 | 1000 ± 259 nM
B3 | 281 ± 53.1 nM
B4 | 741 ± 70.3 nM
B5 | 1230 ± 483 nM

These binders were tested against T3, IFI16HinAB in the same assay as above. Details: protein: recombinant.

Binder | IC50
B7 | 258 ± 24.9 nM
B1 | 3010 nM
B2 | 1390 ± 137 nM
B3 | 1430 ± 366 nM
B5 | 1970 ± 90 nM

Each binder was assayed against T2, AIM2HIN (assay: competition fluorescence anisotropy; unlabelled competitor against 6 nM 24-bp FAM-dsDNA, 625 nM protein; 160 mM KCl (60 mM KCl for IFI16HinAB); buffer, pH and temperature not given in the available text). Details: protein: recombinant.

Binder | IC50
B7 | 19.7 ± 1.9 nM
B1 | 134 ± 16.6 nM
B2 | 113 ± 7.3 nM
B3 | 92.9 ± 2.8 nM
B4 | 219 ± 33.5 nM
B5 | 132.8 ± 0.4 nM
